From patent US20260151494A1 (ARO BIOTHERAPEUTICS, published 2026)
Substitutions are numbered along the chain they refer to.

B1: CD71-binding FN3 domain SEQ ID NO: 257 (designed binder)
chain: MSLPAPKNLVVSHVTEDSARLSWTAPDAAFDSFEIGYWENAYKGEAIVLTVPGSERSYDLTGLKPGTEYVVFIGGVKGGVWSVPLSAIFTT
B2: CD71-binding FN3 domain SEQ ID NO: 323 (designed binder)
chain: B1 chain with H13R, W38F, A41L, K43L, V70W, F72Q, V80N, V83G
B3: CD71-binding FN3 domain SEQ ID NO: 284 (designed binder)
chain: B1 chain with H13R, V70M
B4: CD71-binding FN3 domain SEQ ID NO: 324 (designed binder)
chain: B1 chain with H13R, V14I, W38F, A41L, K43L, V70W, F72Q, V80N, V83A, F89S
B5: CD71-binding FN3 domain SEQ ID NO: 320 (designed binder)
chain: B1 chain with A5V, H13R, V70W, F72Q, V80N, V83A
B6: CD71-binding FN3 domain SEQ ID NO: 309 (designed binder)
chain: B1 chain with K7E, H13R, W38F, A41L, K43L, V70W, F72Q, V80N, V83A
B7: CD71-binding FN3 domain SEQ ID NO: 277 (designed binder)
chain: B1 chain with H13R, W38F, N40L, A41T, K43Y, V70W, F72Q, V80G, W81F, V83E
B8: CD71-binding FN3 domain SEQ ID NO: 276 (designed binder)
chain: MSLPAPKNLVVSRVTEDSARLSWTAPDAAFDSFEIAYFELDYVGEAIVLTVPGSERSYDLTGLKPGTEYWVQIGGVKGGTWSGPLSAIFTI
B9: CD71-binding FN3 domain SEQ ID NO: 283 (designed binder)
chain: MSLPAPKNLVVSRVTEDSARLSWTAPDAAFDSFEIAYQELSLWGEAIVLTVPGSERSYDLTGLKPGTEYYVHIGGVKGGIWSSPLSAYSTT
B10: CD71-binding FN3 domain SEQ ID NO: 296 (designed binder)
chain: B8 chain with E34D, A36G, D41T, Y42W, V43Y, Q72S, T80I, G83S, I91T
B11: CD71-binding FN3 domain SEQ ID NO: 297 (designed binder)
chain: MSLPAPKNLVVSRVTEDSARLSWTAPDAAFDSFEISYFENTWYGEAIVLTVPGSERSYDLTGLKPGTEYSVRIFGVKGGNFSFPLSAIFTT
B12: CD71-binding FN3 domain SEQ ID NO: 282 (designed binder)
chain: B11 chain with E34D, S36G, N40L, S70W, R72S, F74G, N80R, F83E, S86Y, I88R
B13: CD71-binding FN3 domain SEQ ID NO: 298 (designed binder)
chain: B8 chain with A36G, L40N, D41L, V43L, G79D, T80N, G83A, I91T
B14: CD71-binding FN3 domain SEQ ID NO: 315 (designed binder)
chain: B8 chain with A36G, L40N, D41L, V43L, T80N, G83A, F89S, I91T
B15: CD71-binding FN3 domain SEQ ID NO: 319 (designed binder)
chain: B1 chain with H13R, D27G, W38F, A41L, K43L, V70W, F72Q
B16: CD71-binding FN3 domain SEQ ID NO: 299 (designed binder)
chain: B8 chain with L40N, D41L, V43L, T80N, G83A, I91T
B17: CD71-binding FN3 domain SEQ ID NO: 325 (designed binder)
chain: B8 chain with A36G, L40N, D41L, V43L, T80N, G83A, A87E, I91T
B18: CD71-binding FN3 domain SEQ ID NO: 305 (designed binder)
chain: B8 chain with L40Q, D41T, V43T, T80N, G83A, I91T
B19: CD71-binding FN3 domain SEQ ID NO: 307 (designed binder)
chain: B8 chain with D31N, A36G, L40N, D41L, V43L, W81F, G83A, I91T
B20: CD71-binding FN3 domain SEQ ID NO: 306 (designed binder)
chain: B1 chain with H13R, Y37H, W38F, A41L, K43L, T67I, V70W, F72Q, P84S
B21: CD71-binding FN3 domain SEQ ID NO: 316 (designed binder)
chain: B8 chain with V11I, A36G, L40N, D41L, V43L, T80N, G83A, I91T
B22: CD71-binding FN3 domain SEQ ID NO: 300 (designed binder)
chain: B1 chain with H13R, W38F, N40A, A41T, Y42P, K43N, V70K, V80R, V83K
B23: CD71-binding FN3 domain SEQ ID NO: 311 (designed binder)
chain: B1 chain with H13R, V80S, V83N
B24: CD71-binding FN3 domain SEQ ID NO: 272 (designed binder)
chain: B8 chain with F38G, L40A, D41A, V43D, V48A, T50L, T80N, G83A, I91T
B25: CD71-binding FN3 domain SEQ ID NO: 268 (designed binder)
chain: B8 chain with A36G, L40N, D41L, V43L, L60P, T80N, G83A, I91T
B26: CD71-binding FN3 domain SEQ ID NO: 312 (designed binder)
chain: B8 chain with A36G, L40N, D41L, V43L, V51I, T80N, G83A, I91T
B27: CD71-binding FN3 domain SEQ ID NO: 286 (designed binder)
chain: B8 chain with A36V, F38A, L40P, D41V, Y42R, V43F, T80E, G83S, I91T
B28: CD71-binding FN3 domain SEQ ID NO: 313 (designed binder)
chain: B8 chain with L40N, Y42W, V43A, V51I, T80N, G83A, I91T
B29: CD71-binding FN3 domain SEQ ID NO: 292 (designed binder)
chain: B1 chain with H13R, P84S
B30: CD71-binding FN3 domain SEQ ID NO: 275 (designed binder)
chain: B8 chain with A36G, L40N, D41L, V43L, T80N, G83A, S86V, I88E, I91T
B31: CD71-binding FN3 domain SEQ ID NO: 308 (designed binder)
chain: B8 chain with L21M, A25T, A36G, L40N, D41L, V43L, T80N, G83A, I91T
B32: CD71-binding FN3 domain SEQ ID NO: 304 (designed binder)
chain: B1 chain with H13R, W38F, A41L, K43L
B33: CD71-binding FN3 domain SEQ ID NO: 322 (designed binder)
chain: B8 chain with A36G, L40I, D41T, Y42R, V43Y, V48I, T50F, T80N, G83A, I91T
B34: CD71-binding FN3 domain SEQ ID NO: 263 (designed binder)
chain: B8 chain with A36G, L40N, D41L, V43L, T80N, G83S, I91T
B35: CD71-binding FN3 domain SEQ ID NO: 280 (designed binder)
chain: B8 chain with P26L, A36G, L40N, D41L, V43L, T80N, G83A, I91T
B36: CD71-binding FN3 domain SEQ ID NO: 301 (designed binder)
chain: B8 chain with A25T, A36G, L40N, D41L, V43L, T80N, G83A, I91T
B37: CD71-binding FN3 domain SEQ ID NO: 269 (designed binder)
chain: B1 chain with H13R, W38F, A41D, K43F, V80N, V83A
B38: CD71-binding FN3 domain SEQ ID NO: 326 (designed binder)
chain: B1 chain with H13R, V70W, F72Q, V83T
B39: CD71-binding FN3 domain SEQ ID NO: 289 (designed binder)
chain: B8 chain with L40I, D41A, Y42W, V43L, T80A, W81Y, G83T, I91T
B40: CD71-binding FN3 domain SEQ ID NO: 271 (designed binder)
chain: B1 chain with H13R, V14I
B41: CD71-binding FN3 domain SEQ ID NO: 278 (designed binder)
chain: B8 chain with A36G, L40N, D41L, V43L, Y58H, T80N, G83A, I91T
B42: CD71-binding FN3 domain SEQ ID NO: 285 (designed binder)
chain: B1 chain with H13R, P26T
B43: CD71-binding FN3 domain SEQ ID NO: 274 (designed binder)
chain: B8 chain with A36V, F38W, L40Q, D41V, Y42G, T80G, W81F, G83E, I91T

Experiments:
[1] = target: T1, human CD71 extracellular domain (CD71-ECD) (human, UniProt P02786 89-760); assay: primary ELISA; further: test concentration or dose not given here
T1 construct: also called hCD71; human CD71-ECD
T1 sequence (P02786 89-760): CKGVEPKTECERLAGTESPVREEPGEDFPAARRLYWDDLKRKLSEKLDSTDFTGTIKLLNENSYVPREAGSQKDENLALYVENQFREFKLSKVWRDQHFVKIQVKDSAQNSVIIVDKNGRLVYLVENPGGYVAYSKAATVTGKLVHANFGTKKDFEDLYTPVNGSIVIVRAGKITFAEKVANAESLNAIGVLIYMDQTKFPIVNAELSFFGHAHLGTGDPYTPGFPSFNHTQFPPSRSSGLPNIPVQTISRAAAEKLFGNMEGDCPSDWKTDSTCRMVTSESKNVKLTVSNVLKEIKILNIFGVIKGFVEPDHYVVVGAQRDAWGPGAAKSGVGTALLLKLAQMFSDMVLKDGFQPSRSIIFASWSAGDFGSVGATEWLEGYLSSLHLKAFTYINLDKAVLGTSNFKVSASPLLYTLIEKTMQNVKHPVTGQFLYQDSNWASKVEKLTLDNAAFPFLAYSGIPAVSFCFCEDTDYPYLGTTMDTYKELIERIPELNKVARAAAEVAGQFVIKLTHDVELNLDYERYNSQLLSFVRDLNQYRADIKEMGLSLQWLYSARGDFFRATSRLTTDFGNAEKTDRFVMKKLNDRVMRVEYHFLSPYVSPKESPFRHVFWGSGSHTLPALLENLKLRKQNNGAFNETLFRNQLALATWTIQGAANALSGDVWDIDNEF

[2] = target: T1, human CD71 extracellular domain …; assay: primary ELISA, RLU ratio to HSA

Row | Binder | RLU [1] | hCD71:HSA [2]
1 | B1 | 2.83e+06 RLU | 378
2 | B2 | 2.75e+06 RLU | 62
3 | B3 | 2.37e+06 RLU | 195
4 | B4 | 3.13e+06 RLU | 294
5 | B5 | 2.36e+06 RLU | 172
6 | B6 | 3.57e+06 RLU | 287
7 | B7 | 4.13e+06 RLU | 276
8 | B8 | 3.13e+06 RLU | 62
9 | B9 | 2.07e+06 RLU | 77
10 | B10 | 3.39e+06 RLU | 99
11 | B11 | 2.64e+06 RLU | 512
12 | B12 | 3.2e+06 RLU | 240
13 | B13 | 3.67e+06 RLU | 287
14 | B14 | 2.49e+06 RLU | 41
15 | B15 | 3.35e+06 RLU | 137
16 | B16 | 3.26e+06 RLU | 375
17 | B17 | 2.43e+06 RLU | 114
18 | B18 | 3.62e+06 RLU | 315
19 | B19 | 3.75e+06 RLU | 50
20 | B20 | 1.17e+06 RLU | 79
21 | B21 | 3.03e+06 RLU | 301
22 | B22 | 3.88e+06 RLU | 284

Row | Binder | RLU [1] | hCD71:HSA [2]
23 | B23 | 2.38e+06 RLU | 133
24 | B24 | 2.83e+06 RLU | 289
25 | B25 | 4.1e+06 RLU | 133
26 | B26 | 3.1e+06 RLU | 324
27 | B27 | 2.66e+06 RLU | 131
28 | B28 | 2.97e+06 RLU | 480
29 | B29 | 4.33e+06 RLU | 291
30 | B30 | 3.4e+06 RLU | 322
31 | B31 | 3.55e+06 RLU | 127
32 | B32 | 3.39e+06 RLU | 274
33 | B33 | 3.38e+06 RLU | 171
34 | B34 | 3.32e+06 RLU | 208
35 | B35 | 3.21e+06 RLU | 103
36 | B36 | 3.19e+06 RLU | 152
37 | B37 | 4.35e+06 RLU | 348
38 | B38 | 1.5e+06 RLU | 79
39 | B39 | 3.57e+06 RLU | 77
40 | B40 | 2.57e+06 RLU | 180
41 | B41 | 3.46e+06 RLU | 435
42 | B42 | 2.81e+06 RLU | 201
43 | B43 | 2.37e+06 RLU | 296
